The values below come from PMC5889325 (Molecular cell, 2018).

The target in data set [1] is amino-terminal poly-histidine-tagged Cas4 (Bacillus halodurans type I-C), co-expressed with untagged Cas1 (Bacillus halodurans). Description: negative-stain EM reconstruction.
Data set [2] deals with the molecule itself. Description: negative-stain EM reconstruction.

B1: untagged Cas1 (Bacillus halodurans type I-C), co-expressed with His6-Cas4 (natural protein, UniProt Q9KFX9 1-343, looked up)
chain: MKKLLNTLYVTQPDTYLSLDGDNVVLLKEQEKLGRLPLHNLEAIVGFGYTGASPALMGYCAERNISITFLTKNGRFLARVVGESRGNVVLRKTQYRISENDQESTKIARNFITGKVYNSKWMLERMTREHPLRVNVEQFKATSQLLSVMMQEIRNCDSLESLRGWEGQAAINYNKVFDQMILQQKEEFAFHGRSRRPPKDNVNAMLSFAYTLLANDVAAALETVGLDAYVGFMHQDRPGRASLALDLMEELRGLYADRFVLSLINRKEMTADGFYKKENGAVLMTDEARKTFLKAWQTKKQEKITHPYLGEKMSWGLVPYVQALLLARFLRGDLDEYPPFLWK
Turning to B1, in data set [1], the stoichiometry N (Cas1 per complex) was 4 and the stoichiometry N (Cas4 per complex) amounted to 2. The binding result in data set [2] is on record as “binds”.
